In patent US5702926:

Test system: Bca DNA polymerase
Settings: unmodified dCTP; 39 units/µl with dCTPalphaS, 40-50 with dCTPalphaBH3; 4 mM Mg, 60 C

activated calf thymus DNA
activity: 152 units/µl
